# Patent US20240294604A1
# T1: A Proliferation Inducing Ligand (APRIL) (human), O75888
# T1 chain: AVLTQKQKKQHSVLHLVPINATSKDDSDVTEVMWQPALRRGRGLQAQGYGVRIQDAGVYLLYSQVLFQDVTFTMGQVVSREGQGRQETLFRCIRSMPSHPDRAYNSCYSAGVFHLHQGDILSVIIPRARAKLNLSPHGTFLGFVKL
# How the values were obtained:
# Details in all cases: remark: other sources report otherwise
# BAFF = assay: cell binding titration by flow cytometry; soluble BAFF varied to 10 nM on cells displaying the BCMA clone; Kd and BP printed as N.D
# [1] = target: T1, A Proliferation Inducing Ligand (APRIL) …; assay: flow cytometry titration of soluble APRIL (about 0.0005 to 10 nM) on yeast displaying BCMA; one site specific binding fit, nM is the unit of the concentration axis
# [2] = target: T1, A Proliferation Inducing Ligand (APRIL) …; assay: flow cytometry titration of soluble APRIL on yeast displaying BCMA; one site specific binding fit; A.U. from the axis 'Cell binding (A.U.)'
# [3] = target: T1, A Proliferation Inducing Ligand (APRIL) …; assay: cell binding titration by flow cytometry; soluble APRIL varied to 10 nM on cells displaying the BCMA clone; BP is not defined in the filing
# [4] = target: T1, A Proliferation Inducing Ligand (APRIL) …; assay: binding assay of FIG. 1 (flow cytometry titration, one-site specific binding fit; format not stated); Example 4 results, unit printed µM
# [5] = target: T1, A Proliferation Inducing Ligand (APRIL) …; assay: binding assay of FIG. 1 (flow cytometry titration, one-site specific binding fit; format not stated); FIG. 1 legend, unit printed pM
# [6] = target: T1, A Proliferation Inducing Ligand (APRIL) …; assay: cell binding titration by flow cytometry; soluble APRIL varied to 10 nM on cells displaying the BCMA clone
# Sequence of BAFF (chain, as listed by the source): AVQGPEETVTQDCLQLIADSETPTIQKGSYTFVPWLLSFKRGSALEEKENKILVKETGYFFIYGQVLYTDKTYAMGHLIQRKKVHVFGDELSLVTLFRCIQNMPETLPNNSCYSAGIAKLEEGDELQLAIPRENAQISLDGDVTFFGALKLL
binder,measurement,setting,value
"wild type human BCMA extracellular domain (sBCMA WT ECD), Q02223 1-54 (receptor) MLQMAGQCSQNEYFDSLLHACIPCQLRCSSNTPPLTCQRYCNASVTNSVKGTNA",Bmax,BAFF,78.3 A.U.
same,Kd,[1],32.3 pM
same,Bmax,[2],9930 A.U.
same,BP,[3],263
same,Kd,[4],32 pM
same,Kd,[5],32 pM
same,Bmax,[6],6560 A.U.
same,Kd,[6],25 pM
